Assay results taken from patent US20170174769A1.
Where “and” joins values, the source holds several entries; their conditions need not be identical. Identical values can stand only once.

Legend:
[1] = molecular target: cell-surface human FGFR1c alone (amino acids 1-731 of NP_075594) on HEK293/hFGFR1c/SRE-Luc cells of Example 19 (human) (UniProt P11362); assay: cell-based or functional assay
[2] = molecular target: full-length human FGFR1c on HEK293/hFGFR1c/SRE-luc cells (human) (UniProt P11362); assay: cell-based or functional assay
[3] = molecular target: full-length human FGFR1c on HEK293/hFGFR1c/SRE-luc cells (human) (UniProt P11362); assay: FACS on stable HEK293 cells, secondary antibody alone
[4] = molecular target: full-length human KLB on HEK293/hKLB/SRE-luc cells (human) (UniProt Q86Z14); assay: as above
[5] = molecular target: human KLB and human FGFR1c co-expressed on HEK293/hKLB/hFGFR1c/SRE-luc cells (human) (UniProt Q86Z14); assay: as above
[6] = molecular target: full-length human FGFR1c on HEK293/hFGFR1c/SRE-luc cells (human) (UniProt P11362); assay: FACS on stable HEK293 cells, secondary antibody alone; row shifted one column to the left (c3 = 293/hFGFR1c)
[7] = molecular target: human KLB and human FGFR1c co-expressed on HEK293/hKLB/hFGFR1c/SRE-luc cells (human) (UniProt Q86Z14); assay: FACS on stable HEK293 cells, secondary antibody alone; row shifted one column to the left (c4 = 293/hFGFR1c/hKLB)
[8] = molecular target: mouse KLB and mouse FGFR1c co-expressed on HEK293/mKLB/mFGFR1c/SRE-Luc cells (mouse); assay: FACS on stable HEK293 cells, secondary antibody alone; row shifted one column to the left (c5 = 293/mFGFR1c/mKLB)
[9] = molecular target: full-length human FGFR1c on HEK293/hFGFR1c/SRE-luc cells (human) (UniProt P11362); assay: FACS on stable HEK293 cells
[10] = molecular target: full-length human KLB on HEK293/hKLB/SRE-luc cells (human) (UniProt Q86Z14); assay: FACS on stable HEK293 cells
[11] = molecular target: human KLB and human FGFR1c co-expressed on HEK293/hKLB/hFGFR1c/SRE-luc cells (human) (UniProt Q86Z14); assay: FACS on stable HEK293 cells

human KLB and human FGFR1c co-expressed on HEK293/hKLB/hFGFR1c/SRE-luc cells (human), sequence (Q86Z14 whole entry, chain 1 of 2): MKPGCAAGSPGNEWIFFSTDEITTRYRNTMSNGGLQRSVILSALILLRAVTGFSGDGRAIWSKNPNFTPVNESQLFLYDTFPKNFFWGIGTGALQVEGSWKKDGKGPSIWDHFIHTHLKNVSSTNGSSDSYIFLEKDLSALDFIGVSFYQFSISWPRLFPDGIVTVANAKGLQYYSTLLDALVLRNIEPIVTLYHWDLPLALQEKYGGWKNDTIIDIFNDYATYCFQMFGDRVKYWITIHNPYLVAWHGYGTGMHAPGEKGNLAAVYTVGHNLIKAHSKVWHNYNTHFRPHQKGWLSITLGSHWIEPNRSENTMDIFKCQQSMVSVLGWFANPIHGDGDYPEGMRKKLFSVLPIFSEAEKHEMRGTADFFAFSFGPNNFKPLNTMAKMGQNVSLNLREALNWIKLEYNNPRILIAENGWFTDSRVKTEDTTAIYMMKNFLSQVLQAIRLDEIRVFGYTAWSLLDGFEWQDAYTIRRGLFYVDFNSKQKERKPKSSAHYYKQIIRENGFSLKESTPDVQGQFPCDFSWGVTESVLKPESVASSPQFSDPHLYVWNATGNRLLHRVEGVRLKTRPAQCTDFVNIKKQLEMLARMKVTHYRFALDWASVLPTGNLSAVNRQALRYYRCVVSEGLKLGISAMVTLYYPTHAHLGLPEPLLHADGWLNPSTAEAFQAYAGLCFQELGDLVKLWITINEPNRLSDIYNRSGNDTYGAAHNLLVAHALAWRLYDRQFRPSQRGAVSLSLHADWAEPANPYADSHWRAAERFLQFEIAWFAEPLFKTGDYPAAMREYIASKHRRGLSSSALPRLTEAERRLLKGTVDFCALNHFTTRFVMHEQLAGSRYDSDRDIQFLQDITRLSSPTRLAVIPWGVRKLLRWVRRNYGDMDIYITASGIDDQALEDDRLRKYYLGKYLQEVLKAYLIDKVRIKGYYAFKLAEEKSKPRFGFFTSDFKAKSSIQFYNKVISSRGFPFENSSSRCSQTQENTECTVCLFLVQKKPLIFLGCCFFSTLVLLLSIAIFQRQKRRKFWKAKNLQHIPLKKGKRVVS
human KLB and human FGFR1c co-expressed on HEK293/hKLB/hFGFR1c/SRE-luc cells (human), sequence (chain, as listed by the source limits assumed, chain 2 of 2): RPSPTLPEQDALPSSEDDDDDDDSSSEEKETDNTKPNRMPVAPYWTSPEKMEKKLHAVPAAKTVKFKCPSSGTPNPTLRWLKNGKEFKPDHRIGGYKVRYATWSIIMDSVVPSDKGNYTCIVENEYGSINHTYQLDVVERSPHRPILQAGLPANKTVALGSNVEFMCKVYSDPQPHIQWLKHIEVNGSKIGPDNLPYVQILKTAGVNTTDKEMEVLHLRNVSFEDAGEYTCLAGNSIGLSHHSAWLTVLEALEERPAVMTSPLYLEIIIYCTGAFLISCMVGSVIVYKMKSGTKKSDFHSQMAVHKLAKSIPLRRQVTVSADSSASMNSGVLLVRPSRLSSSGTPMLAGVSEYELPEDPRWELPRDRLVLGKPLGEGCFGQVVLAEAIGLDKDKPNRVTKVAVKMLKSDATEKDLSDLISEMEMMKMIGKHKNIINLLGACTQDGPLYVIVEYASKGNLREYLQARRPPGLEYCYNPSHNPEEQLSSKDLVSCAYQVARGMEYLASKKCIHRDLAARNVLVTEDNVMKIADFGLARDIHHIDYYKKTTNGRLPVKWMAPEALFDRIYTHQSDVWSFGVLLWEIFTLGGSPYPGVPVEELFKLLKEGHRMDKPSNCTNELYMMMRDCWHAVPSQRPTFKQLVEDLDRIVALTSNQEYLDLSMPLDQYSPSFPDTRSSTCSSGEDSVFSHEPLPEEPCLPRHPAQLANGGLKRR
full-length human KLB on HEK293/hKLB/SRE-luc cells (human), sequence (Q86Z14 whole entry): as the sequence (Q86Z14 whole entry, chain 1 of 2) above
full-length human FGFR1c on HEK293/hFGFR1c/SRE-luc cells (human), sequence (P11362 other isoform, or with tags, fused parts or gaps limits assumed): as the sequence (chain, as listed by the source limits assumed, chain 2 of 2) above
cell-surface human FGFR1c alone (amino acids 1-731 of NP_075594) on HEK293/hFGFR1c/SRE-Luc cells of Example 19 (human), sequence (P11362 22-822): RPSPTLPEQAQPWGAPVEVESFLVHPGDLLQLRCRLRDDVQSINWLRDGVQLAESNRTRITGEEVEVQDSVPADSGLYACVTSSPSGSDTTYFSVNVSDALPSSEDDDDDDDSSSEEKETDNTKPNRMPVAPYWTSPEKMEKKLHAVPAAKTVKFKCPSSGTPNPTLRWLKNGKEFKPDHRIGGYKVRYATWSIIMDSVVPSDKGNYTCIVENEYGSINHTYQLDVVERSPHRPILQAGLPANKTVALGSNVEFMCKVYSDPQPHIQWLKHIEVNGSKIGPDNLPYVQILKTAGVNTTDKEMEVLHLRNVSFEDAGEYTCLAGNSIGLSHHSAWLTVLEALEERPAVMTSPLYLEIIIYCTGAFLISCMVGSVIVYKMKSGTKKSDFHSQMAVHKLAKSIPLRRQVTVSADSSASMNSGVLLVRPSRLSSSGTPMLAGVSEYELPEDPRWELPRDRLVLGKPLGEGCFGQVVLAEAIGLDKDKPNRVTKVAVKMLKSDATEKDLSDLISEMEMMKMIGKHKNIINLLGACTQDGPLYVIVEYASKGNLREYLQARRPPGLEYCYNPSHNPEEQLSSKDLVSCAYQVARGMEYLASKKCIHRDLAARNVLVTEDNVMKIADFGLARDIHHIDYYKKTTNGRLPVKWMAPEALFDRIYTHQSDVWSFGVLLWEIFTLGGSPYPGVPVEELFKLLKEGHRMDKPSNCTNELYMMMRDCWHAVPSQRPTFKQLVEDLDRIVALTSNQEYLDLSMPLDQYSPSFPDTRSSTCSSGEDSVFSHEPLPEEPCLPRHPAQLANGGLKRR

Row | Substance | binding ratio to unstained cells [3] [fold] | binding ratio to unstained cells [4] [fold] | binding ratio to unstained cells [5] [fold] | binding ratio to unstained cells [9] [fold] | binding ratio to unstained cells [10] [fold] | binding ratio to unstained cells [11] [fold] | also measured
1 | human FGF2 (hFGF2; R&D Systems, #233-FB/CF) (from UniProt P09038 143-288) (ligand) |  |  |  |  |  |  | EC50, SRE-luc activation [1]: 1.6 nM; EC50, SRE-luc activation by ligand [2]: 0.4 nM and 0.8 nM
2 | Anti-Human IgG Secondary Antibody | 1 | 2 | 1 |  |  |  | MFI Ratio to unstained cells [6]: 1 fold; MFI Ratio to unstained cells [7]: 1 fold; MFI Ratio to unstained cells [8]: 1 fold
3 | Irrelevant IgG control 1 (antibody) |  |  |  | 1 | 1 | 2 | 
4 | Irrelevant IgG control 2 (antibody) |  |  |  | 2 | 2 | 2 | 
5 | Anti-Mouse IgG Secondary Antibody | 1 | 1 | 1 |  |  |  | 
